What was measured:
soybean T1 plants = test: Herbicide tolerance of transgenic soybean T1 plants to topramezone; type: in vivo; settings: topramezone 50 and 100 g ai/ha, 7 DAT, compared to control vector DBN11375NN and wild-type
Excerpt: The Arabidopsisthaliana T1 plants into which the AsHPPDm-F372A-02 nucleotide sequence was introduced, Arabidopsis thaliana T1 plants into which the AsHPPD-02 nucleotide sequence was introduced and wild-type Arabidopsisthaliana plants (18 days after sowing) were sprayed with topramezone at four different concentrations, i.e., 25 g ai/ha (one-fold field concentration, 1×), 50 g ai/ha (two-fold field concentration, 2×), 100 g ai/ha (four-fold field concentration, 4×) and 0 g ai/ha (water, 0×) to determine the tolerance of Arabidopsisthaliana to the herbicide. The degree of damage caused by the herbicide was measured for each plant according to the proportion of bleached leaf area (the proportion of bleached leaf area=bleached leaf area/total leaf area×100%) 7 days after spraying (7 DAT): the case where there is basically no bleached phenotype is defined as grade 0, the case where the proportion of bleached leaf area is less than 50% is defined as grade 1,the case where the proportion of bleached leaf area is more than 50% is defined as grade 2, and the case where the proportion of bleached leaf area is 100% grade is defined as grade 3.
The soybean T1 plants into which the AsHPPDm-F372A-02 nucleotide sequence was introduced, soybean T1 plants into which the ZmHPPDm-F372A-02 nucleotide sequence was introduced, soybean T1 plants into which the PfHPPDm-F372A-02 nucleotide sequence was introduced, soybean T1 plants into which the AsHPPDm-F372A-A110 nucleotide sequence was introduced, soybean T1 plants into which, the PfHPPDm-F372A-G413W nucleotide sequence was introduced, soybean T1 plants into which the control vector DBN11375NN was introduced and wild-type soybean plants (V3-V4 at seedling stage) were sprayed with topramezone at two different concentrations respectively, i.e. 50 g ai/ha (2-fold field concentration, 2 ×) and 100 g ai/ha (4-fold field concentration, 4 ×) to detect the herbicide tolerance of soybean plants. According to the method in point 6 of Example 1, after 7 days of spraying (7 DAT), the damage degree of each plant by the herbicide was statistically analyzed, and the scoring and resistance evaluation were carried out accordingly. The soybean plants into which the AsHPPDm-F372A-02 nucleotide sequence was introduced were of two strains in total (S1 and S2), the soybean plants into which the ZmHPPDm-F372A-02 nucleotide sequence was introduced were of two strains in total (S3 and S4), the soybean plants into which the PfHPPDm-F372A-02 nucleotide sequence was introduced were of two strains in total (S5 and S6), the soybean plants into which the AsHPPDm-F372A-Al 10 nucleotide sequence was introduced were of two strains in total (S7 and S8), the soybean plants into which the PfHPPDm-F372A-G413W nucleotide sequence was introduced were of two strains in total (S9 and S10), the soybean plants into which the control vector DBN11375NN nucleotide sequence was introduced were of one strain in total (S11), and the wild-type soybean plants were of one strain in total (CK1); and 8 plants were selected from each strain and detected.

[1] = test system: Arabidopsis thaliana T1 plants; test: Topramezone tolerance of transgenic Arabidopsis thaliana T1 plants (pesticide damage grade by bleached leaf area, score, resistance evaluation); type: in vivo; settings: mutation combination, Table 8
Outline: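 Eighteen days after sowing, wild-type and HPPD-transgenic T1 Arabidopsis receive a topramezone spray at 1×, 2× or 4× field rate (25–100 g ai/ha) or water. Seven days later each plant is graded by its proportion of bleached leaf area.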

B1: PfHPPDm-F372A-G413W: Pseudomonas fluorescens HPPD with F372A and G336W (position 413 of SEQ ID NO: 1), SEQ ID NO: 416 (protein)
chain: MADLYENPMGLMGFEFIEFASPTPGTLEPIFEIMGFTKVATHRSKNVHLYRQGEINLILNNEPNSIASYFAAEHGPSVCGMAFRVKDSQKAYNRALELGAQPIHIDTGPMELNLPAIKGIGGAPLYLIDRFGEGSSIYDIDFVYLEGVERNPVGAGLKVIDHLTHNVYRGRMVYWANFYEKLFNFREARYFDIKGEYTGLTSKAMSAPDGMIRIPLNEESSKGAGQIEEFLMQFNGEGIQHVAFLTDDLVKTWDALKKIGMRFMTAPPDTYYEMLEGRLPDHGEPVDQLQARGILLDGSSVEGDKRLLLQIASETLMGPVFFEFIQRKGDDGFGEWNFKALFESIERDQVRRGVLTAD
modifications: PfHPPDm-F372A-G413W Amino Acid Sequence
tolerance to topramezone, in words (soybean T1 plants): higher tolerance
Grade 0 (number of plants) ([1]; topramezone 25 g ai/ha): 20
Grade 1 (number of plants) ([1]; topramezone 25 g ai/ha): 0
Grade 2 (number of plants) ([1]; topramezone 25 g ai/ha): 0
Grade 3 (number of plants) ([1]; topramezone 25 g ai/ha): 0
Resistance Grade ([1]; topramezone 25 g ai/ha): Highly resistant
score ([1]; topramezone 25 g ai/ha): 0
Grade 0 (number of plants) ([1]; topramezone 100 g ai/ha): 20
Grade 1 (number of plants) ([1]; topramezone 100 g ai/ha): 0
Grade 2 (number of plants) ([1]; topramezone 100 g ai/ha): 0
Grade 3 (number of plants) ([1]; topramezone 100 g ai/ha): 0
Resistance Grade ([1]; topramezone 100 g ai/ha): Highly resistant
score ([1]; topramezone 100 g ai/ha): 0

From patent US20230212587A1, “Mutant Hydroxyphenylpyruvate Dioxygenase Polypeptide, Encoding Gene Thereof and Use Therefor” (Beijing Dabeinong Biotechnology Co., Ltd., priority 2019, published 2023)
